The values that follow come from US12365710B2, “HMGB1 protein derivatives for the removal of biofilms” (RESEARCH INSTITUTE AT NATIONWIDE CHILDREN'S HOSPITAL, priority 2018, dated 2025).

Read-outs that look alike come from different tables or passages of the source.

This data set relates to B. cenocepacia. The format is in vivo, C57BL/6 mice. The following applies: for Bc CFU in lung tissue / Bc CFU in BAL: 10^7 CFU Bc i.t. with 0.2 nmol protein simultaneously, 18 h; for Bc CFU in lung tissue: data not shown, P<0.05; for Bc CFU in BAL: vs control mice; for aggregate biofilm formation / development in vivo: lung model, 0.2 nmol given simultaneously with Bc; for lung damage, H&E histology: mouse, in vivo. Here is the method:
FIGS. 7A-7G: HMGB1 promotes clearance of S. cenocepaca from mice without inducing sepsis. C57BL/6 mice were challenged with 10^7 CFU intratracheally, and either simultaneously (prevention) or 24 h later (treatment) received 0.2 nmol of HMGB1 valiant. (FIG. 7A) Aggregates of B. cenocepacia were visible by fluorescence microscopy in lung sections probed with an α-B. cenocepacia antibody. For prevention, (FIG. 7B) bronchoalveolar lavage (BAL) collected 18 h post-inoculation (hpi) was analyzed for CFU. (FIG. 7C) Neutrophils in BAL were quantified by differential cell counting. (FIG. 7D) Lung tissue collected 72hpi was fixed, embedded, sectioned, and stained with hematoxylin & eosin (10× magnification). For treatment, 72hpi (FIG. 7E) CFUs were quantified in BAL. (FIG. 7F) Neutrophil recruitment was analyzed 24 h after intraperitoneal (i.p.) administration of HMGB1 valiants by fluorescence-activated cell sorting of peritoneal lavage stained with α-CD45, α-CD11b, and αLy-6G. (FIG. 7G) Serum TNF-α. was measured by ELISA in mice injected i.p. with 0.2 nmol HMGB1 valiants, 5 mg/kg LPS, or both. LoD: limit of detection. Bars represent SD. *P<0.05.
Applicant's novel approach of using a non-antimicrobial agent like HMGB1 protein and its variants for the treatment of biofilm related infections epitomizes a radical departure from classic therapeutic concepts. Full length HMGB1 and the smallest variant tested to date with the greatest disruption activity found in vitro, B Box and the modified B Box (mB Box) where the cysteine at position 106 was mutated to a serine to abrogate its inflammatory inducing ability, were tested in vivo for biofilm disruption and inflammatory activity (FIG. 7).
rHMGB1 and mHMGB1 disrupt biofilms in two distinct animal models but the inflammatory response is strongly attenuated with Cys to Ser mutations: Applicant tested both rHMGB1 and mHMGB1 for their ability to treat middle ear infection and the corresponding inflammatory response using a well-established chinchilla model of experimental OM due to NTHI49,67,68 wherein adhered mucosal biofilm formation plays a key role in pathogenesis (FIG. 8A). The middle ear of mixed sex, outbred adult chinchillas were inoculated with 1000 CFU NTHI by transbullar injection. At days 4 and 5 post-challenge, at which time there is abundant biofilm present in the middle ear space, […] of rHMGB1, mHMGB1, or diluent was delivered directly to the middle ear (2 total treatments). On day 6, animals were sacrificed and middle ears were imaged and blindly scored for biofilm that remained (FIG. 8A) and mucosal inflammation (FIG. 8B). […] In contrast, MEFs from mHMGB1-treated animals had increased anti-inflammatory cytokines [IL-4 (2-fold), IL-10 (5-fold)] […] Next, Applicant determined whether rHMGB1 or mHMGB1 could prevent or […] biofilm development. For prevention, adult C57BL/6 mice were challenged with 10^7 CFU of Bc intratracheally (i.t.), and 0.2 nmol of rHMGB1 or mHMGB1 was added simultaneously. After 18 h, mice were euthanized, and bronchoalveolar lavage (BAL) and lungs were collected. Bc formed aggregates that were readily visible in lung sections probed with Bc antibody (FIG. 7A). Tissue was homogenized and CFUs were enumerated. […] This same animal model was then used to investigate lung damage 72 h post-challenge with Bc and administration of rHMGB1 or mHMGB1. Lungs were collected and tissue was fixed, embedded in paraffin, sectioned, and stained with Haematoxylin and Eosin (H&E). […] Next, Applicant assessed the ability of rHMGB1 and mHMGB1 to treat established Bc infection. Mice were challenged as above and 0.2 nmol rHMGB1 or mHMGB1 was administered 24 h later. 48 h after treatment, mice were euthanized and BAL and lungs were collected and processed as above. […] To further validate the reduced pro-inflammatory activity of mHMGB1, Applicant used an in vivo model of chemotaxis to determine relative ability to recruit neutrophils70,71. […]

Regarding “rHMGB1: tagless human recombinant full length HMGB1 (1-215) expressed in E. coli”, the “Bc CFU in lung tissue” value is “significantly fewer”; the “Bc CFU in BAL” value was “significantly fewer Bc in BAL”; the “aggregate biofilm formation / development in vivo” value is reported as “prevent biofilm formation in vivo”; the “lung damage, H&E histology” value is “severe inflammation and an increased neutrophil response”.

B1: mHMGB1: engineered C45S variant of full length rHMGB1 that mimics the reduced form of HMGB1 (protein, UniProt P09429 1-215, looked up, variant C45S)
chain: MGKGDPKKPRGKMSSYAFFVQTCREEHKKKHPDASVNFSEFSKKSSERWKTMSAKEKGKFEDMAKADKARYEREMKTYIPPKGETKKKFKDPNAPKRPPSAFFLFCSEYRPKIKGEHPGLSIGDVAKKLGEMWNNTAADDKQPYEKKAAKLKEKYEKDIAAYRAKGKPDAAKKGVVKAEKSKKKKEEEEDEEDEEDEEEEEDEEDEDEEEDDDDE
modifications: full-length
notes: engineered C45S variant of full length rHMGB1 that mimics the reduced form of HMGB1
Regarding B1, the “Bc CFU in lung tissue” value is reported as “significantly fewer”; the “Bc CFU in BAL” value is given as “significantly fewer Bc in BAL”; the “aggregate biofilm formation / development in vivo” value is recorded as “inhibited aggregate biofilm formation”; the “lung damage, H&E histology” value is listed as “more closely resembled uninfected mouse lungs”. The “inflammatory response in the lung model” value (0.2 nmol) is reported as “did not enhance the inflammatory response”.

B2: B-linker Box: HMGB1 B Box with N- and C-terminal linker (80-179; 80 to 176 in b258), 97 amino acid (protein, UniProt P09429 80-179, looked up, fragment)
chain: PPKGETKKKFKDPNAPKRPPSAFFLFCSEYRPKIKGEHPGLSIGDVAKKLGEMWNNTAADDKQPYEKKAAKLKEKYEKDIAAYRAKGKPDAAKKGVVKAE
As to B2, the “Bc CFU in BAL” value is recorded as “decreased CFU in BAL”. Further, the “aggregate biofilm formation / development in vivo” value (listed as B Box) is “inhibit biofilm development in vivo”. Further, the “aggregate biofilm formation / development in vivo” value (listed as B box) was “prevent biofilm formation in vivo”.
